Reference: patent US20140289906A1, “Compositions Having Dicamba Decarboxylase Activity and Methods of Use” (priority 2013, published 2014)

Test: 14C assay: 14CO2 capture from [14C]-carboxyl-labeled dicamba with IPTG-induced recombinant E. coli cells
Conditions: for Dicamba Decarboxylase Activity: IPTG-induced recombinant E. coli cells, 14CO2 from [14C]-carboxyl-labeled dicamba; for Enzymatic Detection level: dicamba decarboxylation activity

B1: 42 (protein)
chain: MAQGKIALEEHFAIPDTLQDSAGFVPGDYWKELSARLLDIHEQRLMQMDAYGIEKMILSLNAPAVQAIPDKAKALEISRRANDFLAEQCARNPDRFLGFAALPLQDPDAATAELQRCVKTLGFVGALVNGFSQEGDGVTPLYYDLPQYRGFWAEVEKLAVPFYLHPRNPLPQDSRIYAGHPWLMGPTWAFAQETAVHALRLVGSGLFDDHPALRIILGHMGEGLPYMMWRIDNRNAWVKVAPNYPAKRRIADYFNENFYITTSGNFRTQSLVDAMLEIGADRILFSTDWPFENIDHASDWFDTATISEADRLKIGRTNAATLFNLES
modifications: Agrobacterium radiobacter
- Dicamba Decarboxylase Activity: Low
- Enzymatic Detection level: Low

B2: 68 (protein, listed as Hoeflea phototrophica)
chain: MAIIDAHTHTLCPAVNEKVAGTIKPDSVPYQRDMSPESKEQDHTQFPELKIMFNQVERRLADMARMGIDRQVIAPAPGQQHYWAEPKLLAEISALQNDHVAELVARAPDRFAGIGTLPMTDPDAAVAEITRATRELGLRVFQIDSRVMERELSDASLDPIYAALEAAGAGLMIHPLGFSNGERLTPFFMVNSVAQPLEELLAFNHLVFGGVLDRFPKLKVYIAHGGGFAPFYIGRFDHAWKVRPEVNRLTPSAPSTYLRRIYFDTCVYRTDHIETLVRTVGADRVMLGSDYPFDMGDTDPLGLLNACQGLSDDEKATISSKVAIDFFGLET
- Dicamba Decarboxylase Activity: No
- Enzymatic Detection level: No

B3: 60 (protein, listed as Catenulispora acidiphila)
chain: MARGFVRTAVVPGFWDAGWRGAGQPGGMRVDVHAHLFPAAYLDLLDDFRQDGGVGTREVRALGGGDGERELRLRLAAMDAVGVDVQLLSTCPQGPYTGDPTAAVEAARCANVALAQTVAQYPERLRALAALPLPHILASVDELNRAMEQDGMLGAAVGTSILGRPLSHPDFEPLFAALNRRKGVLFVHPIGESAGSPLMQASKLDRVIGYAAEVSTAILQLFQAGLTVKYPDIRIIAPHMGGYLPFLIQRLDRHRDWYLPKDAPSAGQLMRGIAYDTANPLPAALRLTAEVVGPERLLLGTDYPFEQGPSLRDHIEYILAAGLPEAQAKMIVDVNAADFLDMRSGAEQPPV
- Dicamba Decarboxylase Activity: No
- Enzymatic Detection level: No

B4: 3 (protein, listed as Lactobacillus plantarum)
chain: MAKLITVEEHFESAAVTAAMRQAVGNAVLPAVSPALRQYMRDNLPSPAIMQDTQHERLAFMAQYGIDMQVLSYGNSSPQNLSPEQAVPLSQLANDELAKAVVAHPDRYAGLAVLPVGDPQAAVAELNRAVTTLGLRGVLLKGNYQNKFFDEPFFLPIFEAAAALDVPVYFHPSFIPQAVTSHYFESNQWSDVVTGILSSAGYGWHMDVGIQVIRMIASGIFDKLPGLKLISGHWGELVPLFLERLDDELTTYTDLQYPFSTYYRHNVYVTPSGILSAPQLQFMLAEMGADHLMYSIDYPYKQPETSGSFLDIADLTDEQRAQIAFGTATTLFKL
- Dicamba Decarboxylase Activity: Low
- Enzymatic Detection level: Low

B5: 39 (protein, listed as Agrobacterium fabrum)
chain: MAQGKVALEEHFAIPETLQDSAGFVPGDCWTELQHRLLDIQDTRLKLMDAHGIETMILSLNAPAVQAIPDKTKAIEIARRANDALAEECAKRPDRFLAFAALPLQDPDAATQELRRCVNDLGFVGALVNGFSQEGDGQTPLYYDLPQYRPFWGEVEKLDVPFYLHPRNPLPQDSRIYDGHPWLLGPTWAFAQETAVHALRLMASGLFDEHPRLDIILGHMGEGLPYMMWRIDHRNAWVKLPPRYPAKRRFVDYFNENFHITTSGNFRTQTLIDAILEIGADRILFSTDWPFENIDHASDWFHATSIAEADRVKIGRTNARRLFKLDGR
- Dicamba Decarboxylase Activity: No
- Enzymatic Detection level: No

B6: 70 (protein, listed as Alicyclobacillus acidocaldarius)
chain: MAIEPNRAADVHTHFLPTEVLEFLKREPRIQVDLERRAPDKEPFLTVEGRWSFELKRMFVDFEAFASAYRQAGIGLALVSPLPQLFVYHLPAEMGAQVAEVYNDALRDVLAPHRERFRPLATLPLADPTAAARELERRMDEGFVGAIVGPGVGEALIGDEAFWPLWEVADARRAVLFLHPLLHADPRAARLMLPNLVGVPWETTLAAAHLVLSGLLDRYPGARVLLAHGGGFLPYQIGRIEQGYDVWPQVRGRLQDRPTAYLRRMFYDNVLWSDAALRCLIDVVGADRVLAGSDFPFDLSAWPPRPGADVSVLAGGSGREGRLS
- Dicamba Decarboxylase Activity: Low
- Enzymatic Detection level: Low

B7: 62 (protein)
chain: MAVGGKNFRDVTDQVWCPKKRIEDMDREGVDIQVLSPIPVTFSYWAKPEEAESMARIQNDFIAETVLAYPDRFVGLGTVPMQDGETAIREMERCITELNLHGIEIGTNVNGKNLDDPSFIEFFRMAEKWQVPIFIHPWETLGRDRMPHHNFMYTVGMPSETALAAATLIWSGIMEKFPRLKVCFAHGGGSFPYILPRLDQGWKVWPHLRLTTHPPSYYAKKFYFDSLNYDPINLKYMIERFGHEKIFMGSDYPFLLREVDPGKVIDETASLSEEQKAAMLGGNAAEFLNIDIKKRGVAYAESTNT
modifications: Bacillus thuringiensis serovar pulsiensis
- Dicamba Decarboxylase Activity: No
- Enzymatic Detection level: No

B8: 38 (protein, listed as Variovorax paradoxus)
chain: MAQGKIGLEEHFAIPQTLQDSAGFVPGVYWKELSSRLLDIHDGRLRQMDEHGMEMMILSLNAPAVQAVADPVKAYELAVRANDFLAEQVAKRPDRFQAFAALPMQDPEKATQELERCMSVLGFRGALVNGFSQVGTPDNVAYYDAPQYAPFWAAAERLDAPFYLHPRNPIASWAQIYEGHPWLLGPTWAFAQETAVHALRLMASGLFDRHPGLKIILGHLGEGLPYNMWRVDHRNAWVKAPKGYPAKRKLCEYFQENFYLTTSGNFRTQTLIDAMLEVGSDRILFSTDWPFENIDHASNWFNDTSISEADRKKIGRTNAMSLFKLA
- Dicamba Decarboxylase Activity: Low
- Enzymatic Detection level: Low

B9: 64 (protein, listed as Achromobacter piechaudii)
chain: MAIQKIDMHAHFFPPITRQEAAALDPVNAPWLRPDADGATGQIMAGEREFRPVDATLWDPALRIEQMDRHGVDVQILCATPIMFGYTYPARPAADWAARMNDLALEHCAYAPSRLKALAQVPLQDLELACQEASRARAAGHLGVQIGNHVGPRDLDDETLVQFLIHCANNDIPVLVHPWDMMTDGRMKKWMLPWLVSMPAETQLGILSLILSGAFERIPRSLKLCFAHGGGSFAYLLGRVDNAWRHRDIIRQDCPQLPSSYTDRFYTDSAVFDPRSLRLLIDVMGEDRVLLGSDYPYPLGEQEVGRLVAHAELVPEVQQKILFRNTMTFFGLQPGLQPGLQS
- Dicamba Decarboxylase Activity: Low
- Enzymatic Detection level: Low

B10: 37 (protein, listed as Burkholderia gladioli)
chain: MATFSNVKKIALEEHFAIAETIEDSAGFVPPDDWVELRGRLLDIQERRLAEMDRAGIELMVLSLNAPAVQAIRDPRQAVELARRANDYLAEQVARRPDRFRAFAALPMQAPEQAIREAERCVRELGFVGALVNGFSEAEDGAELYYDLPRYRPFWAALEALEVPFYLHPRNPLAGRAPIYDGHSWLMGPTWAFGQETAVHALRLMGSGLFDAHPRLQIILGHMGEGLPYSMWRVDNRNAWVSAKPNYPAEKPIAEYFRNNFWLTTSGNFRTQTLIDAMLEIGSDRILFSADWPFENMDHAADWFDHASISENDRIKIGRGNAERLLKLGR
- Dicamba Decarboxylase Activity: Low
- Enzymatic Detection level: Low

B11: 61 (protein, listed as Gordonia amarae)
chain: MATGAGSGVPSPADRVIVRSPGVIDVHAHAVLPMSLGCAGAAGPEIGYREDGSPFFRVGEYVLNGVRYEGSAFMDPEVRVAAMDAAGIGLQMISPNPITYFTRLDARSATDYARAHNDAIAEAAGRHPGRLVGAAQLPMQDVPAAIAELERSVRELGLVAAYIDTDIGDRTLDAPELDDFYSAAVELDVPVFIHPSPVGQEGPPDDTRLRRFDLDLLLGFSYDETLAVAALVFGGVLERHPALDVCLSHGGGTLAFVAGRFARAVAKPRAWVPEFLVENGIESYLRRLWLDTHVHSAGSLRLLIDTVGTDRLVFGTNFAGWDADGATEVDALGDLRETTTANAAHLLRLGRA
- Dicamba Decarboxylase Activity: No
- Enzymatic Detection level: No

B12: 40 (protein, listed as Rhodococcus jostii)
chain: MAQGKIALEEHFAIPETLNDSAGFVPGTYWDELQARLLDIQDVRLKLMDEHNIETMILSLNAPAVQAIPERERAIDIARRANDVLAEECAKRPDRFRGFAALPLQDPDAAAEELRRCVTELGFVGALVNGFSQSATVDGGSTPLYYDLPRYRPFWAEVERLDVPFYLHPRNPLNQDARIYEGHPWLLGPTWAFAQETAVHALRLMASGLFDEHPGLRIVLGHMGEGIPAMLWRIDHRNAWVDVPPAYPAKRRMVDYFTENFFVTTSGNFRTQTLIDLLLELGSERVMFSTDWPFENINHAAEWFDAASISEADRLKIGRTNAATLFKLDR
- Dicamba Decarboxylase Activity: Low
- Enzymatic Detection level: Low

B13: 45 (protein)
chain: MANDDLAEVIAAHPDRFAGFAALPMRDPQAAAVELQRAVGTHGFCGAMINGLIEGRFLDDPAFAPLLSTAADLGVPLYLHPSFPPPQVAEIYFGGLAPVLGDLLATAGWGWHAETALHVLRLVATGVFDRLPELWVIVGHMGEMIPFALARIDTVLSPVAQLRQPVAQYFQTNVWFTTSGYTTFPPLQCALSTVGIDRLIFSVDYPYTDNTSARALLDTAPISPVDREKLAHGTVEALLRV
modifications: Mycobacterium sp
- Dicamba Decarboxylase Activity: No
- Enzymatic Detection level: No

B14: 59 (protein)
chain: MAPSVIDAHAHFLPGSLVTALRSRSDAPDIRTDSNGGESFGIYRTRMPYGRTYDALDVRLARMDELGVDRQILSLPGLFGIDSRPVSQALPLVRAFNDGVADLVRKHPDRFSGIAALPLADLDAAQEEYRRARGDLGLSGLILPGDTFVSVAAAERVRPLFELAATIGGLIFVHPGPLPDETGSAVDAPAPHTDSVVHRRVTVDIQNRMTEVMVTLALTDFLAPYPSVPVQVANLGGSLPFVIERMDHVYALRNPEAPPPSLSLRSLYVDAASLGPRAIALAAEVYGADRVLFGSDYPIFDDGRCLDAVRQTRLSPDARALIAGGNAARMLTQT
modifications: alpha proteobacterium
- Dicamba Decarboxylase Activity: No
- Enzymatic Detection level: No

B15: 69 (protein, listed as Microbacterium testaceum)
chain: MATSTEGQDVTDVHAHLLMPGLHAEVERRVPDEVQAAADLELRRNGLASLQASGRMIGERFPRLTDVRARLAAMDEQGVDRQWVSPSPNHFYPWANEGLATWASGEANRLIAEHVALAPDRLVGLGVVPLQHPHLVVDALDDAVLGRGLAGVEISSFAGDVELSDERLESFWARAAELRAVVFLHPFGCSLDERLDRFYLSNTVGQPTENAVALSHLIFSGVLDRHPGLRLIAAHGGGYLPTAIGRSDRAWRVRPEARGCAHAPSTYLSKLWFDTVVHDERALRWLVEAAGADRVLLGSDFPFDMGLDDPVAFVRGAGLQDAEVSGILGGNAAELLRTRVHA
- Dicamba Decarboxylase Activity: No
- Enzymatic Detection level: No
